# Laboratory results reported in article PMC12525004, “Bacillus subtilis DinG 3′⟶5′ Exo(ribo)nuclease: A Helpmate to Mitigate Replication Stress” (International Journal of Molecular Sciences, 2025).
# Changes are numbered by the printed parent chain.
# T1: DinG D10A E12A (B. subtilis, UniProt P54394 1-931, D10A | E12A)
# T1 construct: DinG, Bacillus subtilis, 931 aa, with codons 10 (Asp) and 12 (Glu) replaced by Ala; cloned into pET3a (pCB1259); also called exonuclease-deficient DinG; ExoI-deficient DinG variant; source: E. coli BL21(DE3) [pLysS] carrying pCB1259, purified by the same protocol as wt DinG
# T1 sequence (looked up): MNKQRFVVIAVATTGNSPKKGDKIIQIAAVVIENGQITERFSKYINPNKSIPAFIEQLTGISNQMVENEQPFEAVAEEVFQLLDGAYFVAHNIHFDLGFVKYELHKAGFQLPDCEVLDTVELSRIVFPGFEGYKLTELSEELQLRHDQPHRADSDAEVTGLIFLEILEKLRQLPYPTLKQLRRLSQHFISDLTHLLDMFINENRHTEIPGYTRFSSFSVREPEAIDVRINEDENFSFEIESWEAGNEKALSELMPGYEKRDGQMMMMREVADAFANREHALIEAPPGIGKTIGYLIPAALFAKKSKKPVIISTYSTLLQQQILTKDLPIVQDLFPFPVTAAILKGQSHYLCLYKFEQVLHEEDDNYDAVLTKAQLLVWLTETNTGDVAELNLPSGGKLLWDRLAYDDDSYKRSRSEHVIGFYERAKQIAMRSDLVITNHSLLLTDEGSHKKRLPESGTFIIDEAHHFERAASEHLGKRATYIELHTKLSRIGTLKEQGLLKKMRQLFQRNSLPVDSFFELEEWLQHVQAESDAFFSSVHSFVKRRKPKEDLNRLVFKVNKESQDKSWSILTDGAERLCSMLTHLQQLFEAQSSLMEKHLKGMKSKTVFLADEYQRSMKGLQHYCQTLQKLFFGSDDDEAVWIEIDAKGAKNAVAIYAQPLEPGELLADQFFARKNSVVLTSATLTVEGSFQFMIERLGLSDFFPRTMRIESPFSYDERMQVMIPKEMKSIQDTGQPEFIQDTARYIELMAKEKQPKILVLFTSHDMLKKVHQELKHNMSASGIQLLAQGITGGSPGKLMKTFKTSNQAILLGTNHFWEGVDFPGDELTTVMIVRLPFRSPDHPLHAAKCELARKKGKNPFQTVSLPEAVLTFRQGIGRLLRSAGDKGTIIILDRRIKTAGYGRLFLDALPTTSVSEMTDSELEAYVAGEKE
# T2: DinG K290A (B. subtilis, UniProt P54394 1-931, K290A)
# T2 construct: DinG, Bacillus subtilis, 931 aa, with codon 290 (Lys, Walker A box) replaced by Ala; cloned into pET3a (pCB1260); also called ATPase-deficient DinG; source: E. coli BL21(DE3) [pLysS] carrying pCB1260, purified by the same protocol as wt DinG
# T2 sequence (looked up): T1 sequence (looked up) with A10D, A12E, K290A
# T3: DinG (Bacillus subtilis, UniProt P54394 1-931)
# T3 sequence: T1 sequence (looked up) with A10D, A12E
# B1: RecA (natural protein, B. subtilis, UniProt P16971 1-348, looked up)
# chain: MSDRQAALDMALKQIEKQFGKGSIMKLGEKTDTRISTVPSGSLALDTALGIGGYPRGRIIEVYGPESSGKTTVALHAIAEVQQQGGQAAFIDAEHALDPVYAQKLGVNIEELLLSQPDTGEQALEIAEALVRSGAVDIVVVDSVAALVPKAEIEGDMGDSHVGLQARLMSQALRKLSGAINKSKTIAIFINQIREKVGVMFGNPETTPGGRALKFYSSVRLEVRRAEQLKQGNDVMGNKTKIKVVKNKVAPPFRTAEVDIMYGEGISKEGEIIDLGTELDIVQKSGSWYSYEEERLGQGRENAKQFLKENKDIMLMIQEQIREHYGLDNNGVVQQQAEETQEELEFEE
# notes: RecA recombinase, Bacillus subtilis; overproduced from plasmid pBT61 in B. subtilis BG214; also called recombinase RecA
# B2: RnhC (enzyme, B. subtilis, UniProt P94541 1-313, looked up)
# chain: MSHSVIKVSLSAIDQMKMTYSGSLTASVPQGAVFQAKPPGCTITAYQSGKVLFQGKNAAAESARWGTAEPQEKKKTAKKPADPRYAPPADIAGMSVIGSDEVGTGDYFGPMTVVCAYVDKTMLPLMKELGVKDSKDLKDPQIIEIARNLIKTIPYSLLVLKNEKYNSMQEKGMSQGKMKALLHNQAITHLLRKLDGVKPEAILIDQFAEPGVYFNHLKGRDIVKERTYFSTKAEGIHLAVAAASIIARYSFLMEMDKLSRAAGMTLPKGAGPHVDEAAAKLILKKGASALRTFTKLHFANTQKAQRLADKKRS
# notes: RnhC (RNase HIII), Bacillus subtilis; rnhC gene cloned into NdeI-linearised pET21b (pCB1242); also called RNase HIII; RnhC-His; source: E. coli BL21(DE3) [pLysS] carrying pCB1242 (rnhC-His), purified (Ni2+ His-Trap)
# Tests used:
# [1] = target: T1, DinG D10A E12A; test: far-Western, overlay or dot blot; immuno-dot blot: proteins (75-300 ng) spotted on nitrocellulose, blocked with 5% skimmed milk in PBS, incubated 6 h at 4 °C with 200 ng/ml RecA in PBS, 0.5% skimmed milk powder, 0.1% Triton X-100; washed; retained RecA detected with polyclonal anti-RecA antibody; conditions: both partners purified
# [2] = target: T2, DinG K290A; test: as above; conditions: both partners purified
# [3] = target: T3, DinG; test: EMSA; 3 mM Mg2+; substrate degraded during assay; Kapp; EMSA, buffer D (composition not in material; 3 mM MgCl2, or 2 mM EDTA instead), 0.5 nM DNA, 37 °C, 10 min (text: 5 min), 15% native PAGE in TBE 1X; pH and salt; conditions: protein: recombinant; tags: none stated (pET3a, untagged); label: 5'-32P; single strand
# [4] = target: T3, DinG; test: EMSA; 2 mM EDTA, no metal; Kapp; text names lssDNA38, Methods and Fig S4 legend give lssDNA45; EMSA, buffer D (composition not in material; 3 mM MgCl2, or 2 mM EDTA instead), 0.5 nM DNA, 37 °C, 10 min (text: 5 min), 15% native PAGE in TBE 1X; pH and salt; conditions: protein: recombinant; tags: none stated (pET3a, untagged); label: 5'-32P; single strand
# [5] = target: B1; test: far-Western, overlay or dot blot; immuno-dot blot: proteins (75-300 ng) spotted on nitrocellulose, blocked with 5% skimmed milk in PBS, incubated 6 h at 4 °C with 200 ng/ml RecA in PBS, 0.5% skimmed milk powder, 0.1% Triton X-100; washed; retained RecA detected with polyclonal anti-RecA antibody; conditions: both partners purified
binder,measurement,setting,value
B1,binding result,[1],binds
same,binding result,[2],binds
"GTACGTATTCAAGATACCTCGTACTCTGTACTGACTCGGATCCTA (ssDNA, biotin-T at position 44 (second from 3' end)) [3'-Biotin gamma32P-lssDNA45]",apparent K (half saturation),[3],< 0.08 nM
same,apparent K (half saturation),[4],~0.7 nM
B2,binding result,[5],binds
